Measured values from PMC8651678 (Nature Communications, 2021).

What was measured:
[1] = biological target: T1, human eIF2B(αβδγε)2 decamer, eIF2Bβ Avi-tagged and biotinylated (human, UniProt Q14232;P49770;Q9UI10;Q9NR50;Q13144, biotin on the Avi tag); experiment: SPR; conditions: both partners purified
T1 construct: also called decameric eIF2B; copies: 2 + 2 + 2 + 2 + 2

[2] = biological target: T2, human eIF2B(αβδγε)2 decamer (no capture tag) (human, UniProt Q14232;P49770;Q9UI10;Q9NR50;Q13144); experiment: fluorescence polarisation; conditions: both partners purified
T2 construct: also called decameric eIF2B; eIF2B(αβγδε)2; copies: 2 + 2 + 2 + 2 + 2

B1: Sandfly Fever Sicilian virus (SFSV) NSs protein with a C-terminal 6xHIS tag (natural protein)
chain: MINNNMMNSQYMFDYPAINIDVRCHRLLSSVSYVAYNKFHTHDVSTYEHCEIPLEKLRLGFGRRNSLADFYSLGELPASWGPACYFSSVKPMMYTFQGMASDLSRFDLTSFSRKGLPNVLKALSWPLGIPDCEIFSICSDRFVRGLQTRDQLMSYILRMGDSHSLDECIVQAHKKILQEARRLGLSDEHYNGYDLFREIGSLVCLRLINAEPFDTASSGEALDVRTVIRSYRASDPSTGLTEYGNSLWTPIHSHVDENDESSSDSDF
notes: not shown: 6xHIS, C-terminal, kept
Question: With B1 as the binder, how does the Kd [1] read?
Answer: 30 nM

Question: What about the EC50 [2] of the same binder?
Answer: 72 nM
